The source of these data is article PMC6462090.

Assay [1] concerns the target USP9X catalytic domain C1727A (human) (UniProt Q93008).
Assay [2] addresses USP9X catalytic domain H1729A (human) (UniProt Q93008).

Regarding Ub-AMC (from UniProt P0CG48 1-76), the results for the Km for hydrolysis of Ub-AMC, fold increase against WT in assay [1] and in assay [2] were 5 fold and 7 fold, respectively.
